# The DeepSol protein solubility set
# Assay: soluble on expression in E. coli; label from the status in PepcDB or PDB records
row,Sequence,soluble on expression in E. coli
1,MLDMELESFLSMEKQGDISDAFLSAVKAEMQQMVLYAAGLAVRNIEETNRLRQKAKELYFYYLERYSPLAEMYKGSEMSLHNAGTATLRGHKNLAGGKRIDIGLWDGSKEFFHEYCYLPDDVQIRLFISKIQLLHFVVGAITTPQYVEKVALLGKVVGSSRYLELLRSFIDLNDPSGKNYSRGLFFYDHKFDKLEEVGKEVGENLPEVIKRFFPDKWVLVDVWATWCSPCKKEFGYNKQLHAFLEEKGIAMLYCSVDEPENSDNWRNNLSAFGLTGYHYYITSKAEKELLKIPDFRMLIPRYLLFDNKGKLVHANLPRPSSEKALYEEIEKLMQGN,not soluble
2,MGSDKIHHHHHHMFLGEDYLLTNRAAVRLFNEVKDLPIVDPHNHLDAKDIVENKPWNDIWEVEGATDHYVWELMRRCGVSEEYITGSRSNKEKWLALAKVFPRFVGNPTYEWIHLDLWRRFNIKKVISEETAEEIWEETKKKLPEMTPQKLLRDMKVEILCTTDDPVSTLEHHRKAKEAVEGVTILPTWRPDRAMNVDKEGWREYVEKMGERYGEDTSTLDGFLNALWKSHEHFKEHGCVASDHALLEPSVYYVDENRARAVHEKAFSGEKLTQDEINDYKAFMMVQFGKMNQETNWVTQLHIGALRDYRDSLFKTLGPDSGGDISTNFLRIAEGLRYFLNEFDGKLKIVLYVLDPTHLPTISTIARAFPNVYVGAPWWFNDSPFGMEMHLKYLASVDLLYNLAGMVTDSRKLLSFGSRTEMFRRVLSNVVGEMVEKGQIPIKEARELVKHVSYDGPKALFFG,soluble
3,MSLVGDVYLGVGSASSEYWAAYIEGAKAVASSLGKDVNVIPSEFDGQKLLEQFGAVFAAGCEDCVVTVDPASNAFTKAMIERADTAGAKYVNLWNRPDEIHPWDTVPNTWIANISFDGVDSGYQNGMALCNALGGKGNIVALNGIPDNPPAKQRIAGLHKALQECPGLKLLDTQVGNWDQTQGQSITRAWLAKYGDELNGIFSANDGMALGAVAALREKGLVGKILVTGSDGSSDVIKLIEKGEMLSTMHIDGYVQGAYAVALAAAAVKGDIKMDELKQDQRDFFLSQTLVTKDNAASVLNSKEGHHHHHH,not soluble
4,MGSDKIHHHHHHMYRAVIFDFDGTIIDTEQHLFNVINKHLEMHNADPISIDFYRSSIGGAATDLHDHLIKAIGSENKDKLYEEHHLTSTTLPMIDTIKSLMAFLKQRHIPMAIATSSVKAEIMPTFKALGLDDYIEVVVGREDVEQVKPDPELYLSAVQQLNYMPTQCLAIEDSVNGATAAIAAGLDVIVNTNKMTSAQDFSNVDYVAKDIDYDQIVARFFTK,not soluble
5,MALDNAKTSQKLQSLAELDGKAPSHRNLNVQTWSTAEGAKVLFVEARELPMFDLRLIFAAGSSQDGNAPGVALLTNAMLNEGVAGKDVGAIAQGFEGLGADFGNGAYKDMAVASLRSLSAVDKREPALKLFAEVVGKPTFPADSLARIKNQMLAGFEYQKQNPGKLASLELMKRLYGTHPYAHASDGDAKSIPPITLAQLKAFHAKAYAAGNVVIALVGDLSRSDAEAIAAQVSAALPKGPALAKIEQPAEPKASIGHIEFPSSQTSLMLAQLGIDRDDPDYAAVSLGNQILGGGGFGTRLMSEVREKRGLTYGVYSGFTPMQARGPFMINLQTRAEMSEGTLKLVQDVFAEYLKNGPTQKELDDAKRELAGSFPLSTASNADIVGQLGAMGFYNLPLSYLEDFMRQSQELTVEQVKAAMNKHLNVDKMVIVSAGPTVAQKPLEHHHHHH,not soluble
6,MRKDETSNTSPDISAAQPASALRYHLRPPRRNDGAAIHQLVSECPPLDLNSLYAYLLLCEHHAHTCVVAESPGGRIDGFVSAYLLPTRPDVLFVWQVAVHSRARGHRLGRAMLGHILERQECRHVRHLETTVGPDNQASRRTFAGLAGERGAHVSEQPFFDRQAFGGADHDDEMLLRIGPFTHPPH,not soluble
7,MKKTQSEPDQEAIRKIEELSQDLIEGLESYGARLLSVYAHGGILFSEQSEFLHQLVGGRRERIPLTFGTIASTIYSDRVIFGKETIEIRHESNERFAGMFGWKEYPSKTRPGMTDGLLTAPFEFILTQSFVFKSKAAASVIMGRKQNQMINAADRASSQIEALDEALDDLESNRFVLGEHHLSLAVFANHPKALAEYLSKARAHLTNGGAVIAREDLGLEAAWWAQLPGNFSYRARSGAITSRNFAALSPFHSFPIGKLEGNVWGTAVALLKTQAGSPYYFNFHYGDLGNTFVCGPSGSGKTVIVNFLLAQLQKHNPTMVFFDKDQGAEIFVRAGGGKYKPLKNGQPTGIAPLKGMEYTEKNKVFLRNWVLKLVTAEGQTVTEEERQDIAKAIDALGNLPHAQRSLSALQLFFDNTSKEGIAIRLQRWLKGNDLGWVFDNDQDDLNLDSQFIGYDMTDFLDNEEIRRPLMMYLFNRILDLIDGRRIIIVIDEFWKALEDDSFKAFAQDRLKTIRKQNGMMLFATQSPKDALNSTIAHTIIEQCPTQIFFPNQKANYKDYVEDFKLTEREFELIQSELSRESRRFLIKQGQSSVVAELNLRGMNDEIAVLSGTTKNIELVNQIISEYGADPDIWLPIFHQRRENQLEHHHHHH,soluble
8,MGSDKIHHHHHHMINKYKVSENRLSIMEIERFAVHDGPGIRTVVFLQGCPLHCSWCSNPESQKRKPHLLHIKNKCIGCGRCEAICPRGNISIQDHFPVFNRQACVACKACERICPQNAIKFVGESITSSEIMEILLRDRDYYLNSGGGVTFSGGEAFTQFEGLMDLLIQCKNEKLHTSVETCGQVNLDKIKQALPLIDLFLFDIKHTDKDLLQKETGANLDTILTNLRYISSKSANKVTIRVPVIPGFNFNENTLREIFMLAKENRIKCVHLLPYHTLGKDKYEQLGLTYPYSCEQMLAKEELFPFKEMGEKMGLEIRIGG,not soluble
9,MGSSHHHHHHSQDPNSLEVLFQGPMAGGRDRGDLAARQLVFLLPEHLKDASKKKKKSSLLFVKLANPHSGEGATYLIDMCLQQLFEIKVFKEKHHSWFINQSVQSGGLLHFATPMDPLFLLLHYLLKAGKEGKYQPLDQVVVDDTFPDCTLLLRFPELEKSLRHVTEEKEVNSKKYYKYSSEKTLKWLEKKVNQTVVALKANNVNVGARVQSSAYFSGGQVSRDKEEDYVRYAHGLISDYIPKELSDDLSKFLKLPEPPASLPNPPSKKLKLSDEPVEAKEDYTKFNTKDLKTGKKNSKMTAAQKALAKVDKSGMKSIDAFFGAKNKKTGKI,soluble
10,KNFHVVLEAAWLVRDVKTADDAIGVAISEAGKRLNPKLDFVEVDVGTTSCPVCGEPFSSVFIAANTALVGLIFEMKVFDAESAEHAERIAKSVIGKSLRDVP,not soluble
11,MSLSELHALLTFPERPISQSYYVPKLQHFLKSGIPATYTLEQVAAFEHEEKNRNGDKEFRESTDDNKTSNTTPLHVLARSLPLDIKDEELQVVMDMMNILFEYGAGWNFIDYEDKTVGDLFLERNQSRESPLYRRLVEAGVSAELLLRKLNGGDVEFLDTDELIGIEPEESVQTAVDGQKEESVGSDDDATAANQQVYLKTELEYKDDALITKENKDGVMMDWETKIMELASETLFPDPEATNSATILNIGFGMGIIDTFIQARKPYRHYICEAHPDVLAKMKMDGWYEKDNVVILEGRWQDTLNNLLDKGEVFFDGIYYDTFSEHYQDILDLYDVVVGLIKPEGVFSFFNGLGADRSLCYDVYKEIVEIDVATYGMKCDYTRYSLDEQLPDWNDVKRSYFNCNYYYHPRITFAEGHHHHHH,not soluble
12,AHHHHHHGSKVIASAPAKVILFGEHSVVYGKPAIAAAIDLRTFVEAELIREKKIRIEAHDIKVPGLTVSFSENEIYFETDYGKAAEVLSYVREAINLVLEEADKKNVGIKVSITSQIPVGAGLGSSAAVAVATIGAVSKLLGLELSKEEIAKMGHKTELLVQGASSGIDPTVSAIGGFIFYEKGKFEHLPFMELPIVVGYTGSSGPTKELVAMVRKRYEEMPELIVPILEAMGKVVEKAKDVILSNVDKEEKFERLGVLMNINHGLLDALGVSTKKLSELVYAARVAGALGAKITGAGGGGCMYALAPNKQREVATAIRIAGGTPMITEISREGLKIEEVIK,not soluble
13,MGADGGTIPKRCELVKERKKKEKLDKHVKNATKWRNCQLTQLPLKRPVIACRFGKLYNKEDVINSILSKTISKSASASHIKGPKDFVELKLTLNKDFKRGDVKGDDYNDVNQTEFICPITNVPMNGIQSFLVNWQCGCVYSEKAQQEVKSSNCHVCGGPYDATKMVILNPEPEQLELYKLKWEAEKAEKAAAKKDKAKKTAEKMEAAASLAAGSGGEASSVAPGPSGSGVGKHVDLKKKLEIAKLTGGSTSEKKAEKRKANTDIQSDPTTSDTYKKLFTTCEAAKNKTEGHWVTYNPLYY,soluble
